For this test, the target named is Myc expressed from a co-transfected Myc expressing plasmid (pSpMyc). Description: cell-based or functional assay.

The source of these data is patent US20030004092A1.

Regarding “cdr2 expressed from a co-transfected cdr2 expressing plasmid”, the Myc-dependent transcriptional activity (pM4luc luciferase reporter, NIH-3T3 cells) turned out to be 4 fold.
